Test results: patent publication US20240084031A1 (Seagen, published 2024)
Positions count from the first letter of the chain named. In names and notes the source's numbering stands. One block for each binder: values may come before it.

How the values were obtained:
[1] = molecular target: T1, human CD70 on CD70 positive cell lines (human, UniProt P32970 1-193); experiment: cell-based or functional assay
T1 sequence (looked up): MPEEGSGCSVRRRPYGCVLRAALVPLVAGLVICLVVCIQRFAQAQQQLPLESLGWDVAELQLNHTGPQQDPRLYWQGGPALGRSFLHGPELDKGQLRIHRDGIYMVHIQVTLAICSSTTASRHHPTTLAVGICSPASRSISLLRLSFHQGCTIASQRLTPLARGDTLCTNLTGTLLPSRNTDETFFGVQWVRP

[2] = molecular target: T1, human CD70 on CD70 positive cell lines; experiment: saturation binding of europium-labelled antibody to CD70+ Caki-1 cells (apparent KD)
Description: (§1) Humanized 1F6 antibody derivatives HDLA (hVHD and hVLA), HHLA (hVHH and hVLA), and HJLA (hVHJ and hVLA), and c1F6 were transiently expressed in 293 cells, labeled with europium using the Eu-N1 iodoacetamido chelate (Perkin Elmer), and analyzed for saturation binding to a panel of CD70 positive cell lines as described in detail in U.S. Patent Application No. 60/673,070, filed Apr. 19, 2005; and PCT International Publication No. WO 2006/113909.

[3] = molecular target: T1, human CD70 on CD70 positive cell lines; experiment: saturation binding of europium-labelled antibody to CD70+ Caki-2 cells (apparent KD)
Description: as §1

[4] = molecular target: T1, human CD70 on CD70 positive cell lines; experiment: saturation binding of europium-labelled antibody to CD70+ ACHN cells (apparent KD)
Description: as §1

[5] = molecular target: T1, human CD70 on CD70 positive cell lines; experiment: saturation binding of europium-labelled antibody to CD70+ 786-O cells (apparent KD)
Description: as §1

[6] = molecular target: T2, human FcγRI, full length on stably transfected CHO cells (human, UniProt P12314 16-374); experiment: cell-based competition binding, flow cytometry (LSRII): serial dilutions of unlabelled competitor against 50 nM Alexa Fluor 488-labelled h1F6 IgG1 on CHO cells expressing human FcγRI
T2 construct: whole, on cells; also called CD64; Fcγ receptor I
Protocol: (§2) Labeled cells were detected using an LSRII FACS analyzer.
(§3) Binding of humanized anti-CD70 (h1F6) antibody to CHO cells expressing full-length FcγRI was determined by competition binding. […] Labeled cells were detected using an LSRII FACS analyzer.

[7] = molecular target: T1, human CD70 on CD70 positive cell lines; experiment: 786-O cell binding; IC50 of the vcF2 conjugate over IC50 of the unconjugated IgG
[8] = molecular target: T3, human FcγRIIIa, 158V (high affinity), full length on stably transfected CHO cells (human, UniProt P08637 17-254); experiment: cell-based competition binding, flow cytometry (LSRII): serial dilutions of unlabelled competitor against 100 nM Alexa Fluor 488-labelled h1F6 IgG1 on CHO cells expressing human FcγRIIIa 158V
T3 construct: whole, on cells; CHO DG44 line '158V'; also called CD16
Protocol: as §2
(§4) Binding of variant humanized anti-CD70 (h1F6) antibodies to CHO cells expressing full-length FcγRIIIa was also determined by competition binding. […] Labeled cells were detected using an LSRII FACS analyzer.

[9] = molecular target: T2, human FcγRI, full length on stably …; experiment: cell-based competition binding on CHO cells expressing full-length FcγRI, 'performed as described previously' (50 nM Alexa Fluor 488-labelled h1F6 IgG1)
Protocol: as §3
(§5) Binding of one of the variants, IgG1 S239C, to CHO cells expressing full-length FcγRIIIa and FcγRI was determined as described above. […] The control, parent antibody h1F6, binds to FcγRIIIa-expressing cells and FcγRI-expressing cells.

[10] = molecular target: T3, human FcγRIIIa, 158V (high affinity), …; experiment: cell-based competition binding on CHO cells expressing full-length FcγRIIIa, 'performed as described previously' (158V line, 100 nM Alexa Fluor 488-labelled h1F6 IgG1); the sheet says only FcγRIIIA
Protocol: as §4, §5

[11] = molecular target: T1, human CD70 on CD70 positive cell lines; experiment: 786-O cell binding, apparent KD of the IgG

T3 sequence (P08637 17-254 F176V): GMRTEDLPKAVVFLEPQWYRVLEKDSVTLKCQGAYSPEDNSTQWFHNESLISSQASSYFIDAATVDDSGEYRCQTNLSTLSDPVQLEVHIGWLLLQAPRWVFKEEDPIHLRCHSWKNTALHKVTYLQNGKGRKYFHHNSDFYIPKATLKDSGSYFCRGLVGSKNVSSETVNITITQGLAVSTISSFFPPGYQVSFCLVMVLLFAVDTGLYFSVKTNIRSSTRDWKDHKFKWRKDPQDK
T2 sequence (P12314 16-374): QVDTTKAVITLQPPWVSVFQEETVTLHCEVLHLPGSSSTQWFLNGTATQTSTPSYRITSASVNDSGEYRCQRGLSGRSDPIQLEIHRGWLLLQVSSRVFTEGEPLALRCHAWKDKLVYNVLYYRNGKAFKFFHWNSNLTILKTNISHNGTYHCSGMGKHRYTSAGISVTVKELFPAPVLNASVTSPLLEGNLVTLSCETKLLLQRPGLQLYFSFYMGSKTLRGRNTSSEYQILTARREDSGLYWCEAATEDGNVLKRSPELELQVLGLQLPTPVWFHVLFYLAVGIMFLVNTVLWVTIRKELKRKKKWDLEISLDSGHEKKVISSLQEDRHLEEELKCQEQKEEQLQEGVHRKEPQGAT

B1: h1F6 HMLA-F8 (humanized 1F6 derivative HMLA, hVHM and hVLA, conjugated to vcMMAF, eight drug units per antibody) (antibody, human IgG1, kappa, V domains shown)
VH: QVQLVQSGAEVKKPGASVKVSCKASGYTFTNYGMNWVRQAPGQGLKWMGWINTYTGEPTYADAFKGRFAFSLDTSTSTAYMELRSLRSDDTAVYYCARDYGDYGMDYWGQGTTVTVSS
VL: DIVMTQSPDSLAVSLGERATINCRASKSVSTSGYSFMHWYQQKPGQPPKLLIYLASNLESGVPDRFSGSGSGTDFTLTISSLQAEDVAVYYCQHSREVPWTFGQGTKVEIKR
modifications: vcMMAF conjugated, loading level of eight drug units per antibody; attachment residues not stated
cytotoxicity IC50 (mean, n = 3), 786-O cells [1]: 2.03 ng/mL
cytotoxicity IC50 (mean, n = 3), Caki-1 cells [1]: 2.07 ng/mL
cytotoxicity IC50, 786-O cells [1]: 2.8 ng/mL
cytotoxicity IC50, Caki-1 cells [1]: 1.8 ng/mL

B2: h1F6 HELA-F8 (humanized 1F6 derivative HELA, hVHE and hVLA, conjugated to vcMMAF, eight drug units per antibody) (antibody, human IgG1, kappa, V domains shown)
VH: B1 VH with K46E, F68V, A69T, F70M, S71T, L72R, T76I, R84S, S85R
VL: B1 VL
modifications: vcMMAF conjugated, loading level of eight drug units per antibody; attachment residues not stated
cytotoxicity IC50 (mean, n = 3), 786-O cells [1]: 3.9 ng/mL
cytotoxicity IC50 (mean, n = 3), Caki-1 cells [1]: 2.87 ng/mL
cytotoxicity IC50, 786-O cells [1]: 5.2 ng/mL
cytotoxicity IC50, Caki-1 cells [1]: 3.4 ng/mL

B3: humanized 1F6 antibody derivative HDLA (hVHD and hVLA) (antibody, human IgG1, kappa, V domains shown)
VH: B1 VH with K46E, F68V, A69T, F70M, S71T, L72T
VL: B1 VL
notes: Heavy chain is hVH-D + hIgG1 constant domain; also called h1F6 HDLA
Kd [2]: 1.29 nM
Kd [3]: 0.86 nM
Kd [4]: 1.44 nM
Kd [5]: 0.55 nM

B4: h1F6 HHLA-F8 (HHLA conjugated to vcMMAF, eight drug units per antibody) (antibody, human IgG1, kappa, V domains shown)
VH: B1 VH with K46E, M81L, E82Q, L83I, R84N
VL: B1 VL
modifications: vcMMAF conjugated, loading level of eight drug units per antibody; attachment residues not stated
cytotoxicity IC50 (mean, n = 3), 786-O cells [1]: 1.93 ng/mL
cytotoxicity IC50 (mean, n = 3), Caki-1 cells [1]: 1.87 ng/mL
cytotoxicity IC50, 786-O cells [1]: 2.3 ng/mL
cytotoxicity IC50, Caki-1 cells [1]: 1.4 ng/mL

B6: h1F6 HJLA-F8 (HJLA conjugated to vcMMAF, eight drug units per antibody) (antibody, human IgG1, kappa)
heavy: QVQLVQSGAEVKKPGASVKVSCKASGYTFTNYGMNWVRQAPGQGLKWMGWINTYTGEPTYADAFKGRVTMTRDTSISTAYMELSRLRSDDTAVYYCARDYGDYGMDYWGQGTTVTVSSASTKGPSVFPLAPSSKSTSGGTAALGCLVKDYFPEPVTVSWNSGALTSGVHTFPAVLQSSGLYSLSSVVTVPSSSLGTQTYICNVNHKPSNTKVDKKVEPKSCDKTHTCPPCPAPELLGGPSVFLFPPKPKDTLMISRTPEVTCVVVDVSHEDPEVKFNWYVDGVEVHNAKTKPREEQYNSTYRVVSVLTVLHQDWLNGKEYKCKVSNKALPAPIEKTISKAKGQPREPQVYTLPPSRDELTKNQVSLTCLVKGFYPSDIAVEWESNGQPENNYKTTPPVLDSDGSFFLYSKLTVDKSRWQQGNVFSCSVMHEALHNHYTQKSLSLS
light: DIVMTQSPDSLAVSLGERATINCRASKSVSTSGYSFMHWYQQKPGQPPKLLIYLASNLESGVPDRFSGSGSGTDFTLTISSLQAEDVAVYYCQHSREVPWTFGQGTKVEIKRTVAAPSVFIFPPSDEQLKSGTASVVCLLNNFYPREAKVQWKVDNALQSGNSQESVTEQDSKDSTYSLSSTLTLSKADYEKHKVYACEVTHQGLSSPVTKSFNRGEC
modifications: vcMMAF conjugated, loading level of eight drug units per antibody; attachment residues not stated
cytotoxicity IC50 (mean, n = 3), 786-O cells [1]: 3.03 ng/mL
cytotoxicity IC50 (mean, n = 3), Caki-1 cells [1]: 2.3 ng/mL
cytotoxicity IC50, 786-O cells [1]: 3.4 ng/mL
cytotoxicity IC50, Caki-1 cells [1]: 2.2 ng/mL

B10: h1F6 IgG1 vcMMAF(4) antibody drug conjugate (antibody)
heavy: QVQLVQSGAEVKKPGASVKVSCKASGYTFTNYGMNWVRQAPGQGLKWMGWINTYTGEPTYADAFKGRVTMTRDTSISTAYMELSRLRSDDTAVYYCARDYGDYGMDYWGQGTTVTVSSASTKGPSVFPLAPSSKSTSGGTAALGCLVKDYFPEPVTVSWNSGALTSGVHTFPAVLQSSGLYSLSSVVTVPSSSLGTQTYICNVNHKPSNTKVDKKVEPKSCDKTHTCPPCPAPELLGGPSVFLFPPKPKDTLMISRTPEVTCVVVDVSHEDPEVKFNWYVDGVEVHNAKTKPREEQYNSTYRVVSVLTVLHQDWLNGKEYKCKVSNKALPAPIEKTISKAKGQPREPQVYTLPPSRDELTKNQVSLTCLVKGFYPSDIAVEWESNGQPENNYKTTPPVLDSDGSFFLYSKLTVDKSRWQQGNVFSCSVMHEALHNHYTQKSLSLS
light: B6 light
modifications: vcMMAF conjugated, mean loading of 4 drugs/antibody; attachment residues not stated
notes: also called h1F6 G1-vcMMAF(4); IgG1-F4
binding result [8]: binds
binding result [6]: binds

B13: h1F6 IgG1 D265C (antibody)
heavy: not shown
light: B6 light
Kd [11]: 1.1 nM

B14: h1F6 IgG1 A327C-vcF2 (conjugate in Table 8) (antibody)
heavy: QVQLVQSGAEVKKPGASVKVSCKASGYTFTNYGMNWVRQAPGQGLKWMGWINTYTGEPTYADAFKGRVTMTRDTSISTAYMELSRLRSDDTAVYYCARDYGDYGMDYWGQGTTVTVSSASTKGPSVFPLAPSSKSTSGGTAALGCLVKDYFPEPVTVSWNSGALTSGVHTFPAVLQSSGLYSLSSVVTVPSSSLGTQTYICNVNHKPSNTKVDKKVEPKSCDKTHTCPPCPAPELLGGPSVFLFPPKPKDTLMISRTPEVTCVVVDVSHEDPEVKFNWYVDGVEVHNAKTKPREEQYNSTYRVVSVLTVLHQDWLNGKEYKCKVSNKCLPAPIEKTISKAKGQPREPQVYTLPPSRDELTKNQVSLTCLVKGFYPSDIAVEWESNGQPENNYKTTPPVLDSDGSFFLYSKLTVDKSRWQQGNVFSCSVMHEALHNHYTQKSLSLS
light: B6 light
modifications: vcF2 as printed (taken as vcMMAF, 2 drugs/antibody); attachment residues not stated
notes: Position 327 is Fc (EU) numbering; also called IgG1 A327C IgG-vcF2
IC50 IgG-vcF2 / IC50 IgG [7]: 1.1 ratio

B16: h1F6 IgG1 E269C (antibody)
heavy: not shown
light: B6 light
Kd [11]: 0.8 nM

B17: h1F6 IgG1 A327C (antibody)
heavy: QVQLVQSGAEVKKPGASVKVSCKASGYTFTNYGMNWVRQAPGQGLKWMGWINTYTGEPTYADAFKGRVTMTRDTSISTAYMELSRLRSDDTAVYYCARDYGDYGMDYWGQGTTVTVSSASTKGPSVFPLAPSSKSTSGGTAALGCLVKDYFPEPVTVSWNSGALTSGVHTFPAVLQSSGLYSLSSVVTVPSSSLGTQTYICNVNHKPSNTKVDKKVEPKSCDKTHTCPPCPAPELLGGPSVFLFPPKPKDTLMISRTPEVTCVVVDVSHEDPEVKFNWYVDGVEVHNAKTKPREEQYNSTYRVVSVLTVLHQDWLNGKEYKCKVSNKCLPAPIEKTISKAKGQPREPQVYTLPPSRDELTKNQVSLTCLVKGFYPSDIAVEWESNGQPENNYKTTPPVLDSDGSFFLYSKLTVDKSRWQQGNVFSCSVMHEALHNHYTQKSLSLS
light: B6 light
Kd [11]: 0.5 nM

B18: h1F6 IgG1 D265C-vcF2 (conjugate in Table 8) (antibody)
heavy: not shown
light: B6 light
modifications: vcF2 as printed (taken as vcMMAF, 2 drugs/antibody); attachment residues not stated
notes: Position 265 is Fc (EU) numbering; also called IgG1 D265C IgG-vcF2
IC50 IgG-vcF2 / IC50 IgG [7]: 0.9 ratio

B19: c1F6(293)-F8 (c1F6 conjugated to vcMMAF, eight drug units per antibody) (antibody, V domains shown)
VH: QIQLVQSGPEVKKPGETVKISCKASGYTFTNYGMNWVKQAPGKGLKWMGWINTYTGEPTYADAFKGRFAFSLETSASTAYLQINNLKNEDTATYFCARDYGDYGMDYWGQGTSVTVSS
VL: DIVLTQSPASLAVSLGQRATISCRASKSVSTSGYSFMHWYQQKPGQPPKLLIYLASNLESGVPARFSGSGSGTDFTLNIHPVEEEDAATYYCQHSREVPWTFGGGTKLEIKR
modifications: vcMMAF conjugated, loading level of eight drug units per antibody; attachment residues not stated
cytotoxicity IC50 (mean, n = 3), 786-O cells [1]: 1.45 ng/mL
cytotoxicity IC50 (mean, n = 3), Caki-1 cells [1]: 2.17 ng/mL
cytotoxicity IC50, 786-O cells [1]: 2.4 ng/mL
cytotoxicity IC50, Caki-1 cells [1]: 1.8 ng/mL

B20: c1F6 (chimeric derivative of the anti-CD70 murine monoclonal antibody 1F6) (antibody, V domains shown)
VH: B19 VH
VL: B19 VL
notes: also called chimeric 1F6
Kd [2]: 1.28 nM
Kd [3]: 0.26 nM
Kd [4]: 0.3 nM
Kd [5]: 0.56 nM

Next, values leading:

Kd [2]: 1.22 nM
Kd [3]: 0.15 nM
Kd [4]: 0.29 nM
Kd [5]: 0.28 nM
B5: humanized 1F6 antibody derivative HHLA (hVHH and hVLA) (antibody, V domains shown)
VH: B1 VH with K46E, M81L, E82Q, L83I, R84N
VL: B1 VL
notes: Heavy chain is hVH-H + hIgG1 constant domain; also called h1F6 HHLA

IC50 (read off the curve) [6]: ~30 nM
B7: h1F6 IgG4 (IgG4 isotype variant of h1F6 HJLA) (antibody)
heavy: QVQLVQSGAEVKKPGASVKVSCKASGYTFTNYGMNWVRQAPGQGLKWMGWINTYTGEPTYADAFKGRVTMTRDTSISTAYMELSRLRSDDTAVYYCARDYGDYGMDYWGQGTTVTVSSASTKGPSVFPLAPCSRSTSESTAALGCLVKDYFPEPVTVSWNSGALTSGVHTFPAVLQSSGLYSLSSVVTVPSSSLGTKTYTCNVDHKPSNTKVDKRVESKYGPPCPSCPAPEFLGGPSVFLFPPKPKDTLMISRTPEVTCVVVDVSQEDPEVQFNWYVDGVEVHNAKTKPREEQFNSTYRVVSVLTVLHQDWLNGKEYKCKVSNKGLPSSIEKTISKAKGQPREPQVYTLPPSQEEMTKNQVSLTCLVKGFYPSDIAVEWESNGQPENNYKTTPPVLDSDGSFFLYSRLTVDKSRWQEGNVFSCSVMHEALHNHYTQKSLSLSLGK
light: B6 light
notes: also called h1F6 G4

IC50 (read off the curve) [6]: ~10 nM
B8: h1F6 IgG4 vcMMAF(4) antibody drug conjugate (antibody)
heavy: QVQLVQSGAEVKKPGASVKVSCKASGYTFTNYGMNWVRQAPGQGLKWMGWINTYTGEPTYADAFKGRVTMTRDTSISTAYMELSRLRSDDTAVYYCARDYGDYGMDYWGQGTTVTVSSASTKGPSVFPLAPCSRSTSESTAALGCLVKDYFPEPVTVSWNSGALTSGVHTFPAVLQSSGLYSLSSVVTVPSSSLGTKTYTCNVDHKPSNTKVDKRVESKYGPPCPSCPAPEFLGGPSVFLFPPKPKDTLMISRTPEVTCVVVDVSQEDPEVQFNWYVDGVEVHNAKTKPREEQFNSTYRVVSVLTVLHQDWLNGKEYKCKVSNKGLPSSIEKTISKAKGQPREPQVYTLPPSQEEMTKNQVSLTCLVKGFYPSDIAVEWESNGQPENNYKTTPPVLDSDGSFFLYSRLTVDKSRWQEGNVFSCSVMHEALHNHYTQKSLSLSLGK
light: B6 light
modifications: vcMMAF conjugated, mean loading of 4 drugs/antibody; attachment residues not stated
notes: also called h1F6 G4-vcMMAF(4); IgG4-F4

IC50 IgG-vcF2 / IC50 IgG [7]: 1.3 ratio
B9: h1F6 IgG1-vcF2 (conjugate of h1F6 IgG1 in Table 8) (antibody)
heavy: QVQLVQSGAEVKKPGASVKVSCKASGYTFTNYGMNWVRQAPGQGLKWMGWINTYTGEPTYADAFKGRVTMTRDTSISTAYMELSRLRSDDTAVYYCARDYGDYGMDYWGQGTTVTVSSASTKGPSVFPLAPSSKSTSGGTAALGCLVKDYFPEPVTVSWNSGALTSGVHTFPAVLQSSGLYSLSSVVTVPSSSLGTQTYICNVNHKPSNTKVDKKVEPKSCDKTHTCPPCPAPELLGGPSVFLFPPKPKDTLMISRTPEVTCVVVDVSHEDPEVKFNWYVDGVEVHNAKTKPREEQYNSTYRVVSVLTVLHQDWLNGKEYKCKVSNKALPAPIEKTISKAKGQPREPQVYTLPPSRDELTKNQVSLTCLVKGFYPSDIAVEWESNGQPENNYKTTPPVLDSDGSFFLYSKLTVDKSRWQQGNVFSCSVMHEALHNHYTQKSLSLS
light: B6 light
modifications: vcF2 as printed (taken as vcMMAF, 2 drugs/antibody); attachment residues not stated
notes: Its preparation is not described; also called IgG1 IgG-vcF2

IC50 (read off the curve) [9]: ~10 nM
binding result [10]: binds
Kd [11]: 1 nM
B11: h1F6 IgG1 S239C (antibody)
heavy: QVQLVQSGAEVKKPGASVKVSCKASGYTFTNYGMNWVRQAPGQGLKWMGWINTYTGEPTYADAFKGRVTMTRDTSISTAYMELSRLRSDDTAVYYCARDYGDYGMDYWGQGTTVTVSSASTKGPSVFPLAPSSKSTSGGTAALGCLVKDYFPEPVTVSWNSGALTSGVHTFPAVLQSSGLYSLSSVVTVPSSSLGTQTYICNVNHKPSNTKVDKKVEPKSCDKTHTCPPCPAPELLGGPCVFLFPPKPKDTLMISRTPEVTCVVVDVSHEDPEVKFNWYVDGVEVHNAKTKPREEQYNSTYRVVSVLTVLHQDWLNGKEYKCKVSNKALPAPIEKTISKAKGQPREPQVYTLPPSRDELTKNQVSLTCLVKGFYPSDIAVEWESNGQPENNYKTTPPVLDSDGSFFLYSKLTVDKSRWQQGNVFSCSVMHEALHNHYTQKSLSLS
light: B6 light

IC50 IgG-vcF2 / IC50 IgG [7]: 0.9 ratio
B12: h1F6 IgG1 E269C-vcF2 (conjugate in Table 8) (antibody)
heavy: not shown
light: B6 light
modifications: vcF2 as printed (taken as vcMMAF, 2 drugs/antibody); attachment residues not stated
notes: Position 269 is Fc (EU) numbering; also called IgG1 E269C IgG-vcF2

IC50 (read off the curve) [9]: ~8 nM
binding result [10]: binds
IC50 IgG-vcF2 / IC50 IgG [7]: 1.1 ratio
B15: h1F6 IgG1 S239C conjugated to vcMMAF (average of 2 drugs/antibody) (antibody)
heavy: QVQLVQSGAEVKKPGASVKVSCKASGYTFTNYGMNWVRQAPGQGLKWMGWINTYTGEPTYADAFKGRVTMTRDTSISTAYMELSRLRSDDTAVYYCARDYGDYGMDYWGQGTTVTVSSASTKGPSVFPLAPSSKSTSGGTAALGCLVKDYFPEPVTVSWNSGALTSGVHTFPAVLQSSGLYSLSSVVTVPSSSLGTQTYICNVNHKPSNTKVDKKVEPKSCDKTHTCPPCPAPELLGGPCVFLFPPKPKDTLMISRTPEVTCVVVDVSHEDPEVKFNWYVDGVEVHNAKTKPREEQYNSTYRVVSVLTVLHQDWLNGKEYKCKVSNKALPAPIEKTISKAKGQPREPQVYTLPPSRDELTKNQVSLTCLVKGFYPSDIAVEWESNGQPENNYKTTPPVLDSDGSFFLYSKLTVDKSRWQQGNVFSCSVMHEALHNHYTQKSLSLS
light: B6 light
modifications: vcMMAF conjugated, average of 2 drugs/antibody; attachment residues not stated for the material tested
notes: also called IgG1 S239C vcMMAF; IgG1 S239C IgG-vcF2
